Test results: patent US20150203577A1 (Chugai, published 2015)

T1: mouse FcγRII extracellular domain, C-terminally His-tagged (mouse, UniProt P08101 30-210)
T1 construct: the whole entry is named; also called mFcγRII; mFcgRII
T1 sequence: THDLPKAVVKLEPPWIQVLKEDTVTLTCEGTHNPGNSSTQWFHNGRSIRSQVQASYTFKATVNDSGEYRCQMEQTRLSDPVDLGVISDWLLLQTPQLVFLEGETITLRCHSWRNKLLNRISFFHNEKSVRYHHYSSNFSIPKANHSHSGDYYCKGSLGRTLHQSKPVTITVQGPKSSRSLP

T2: mouse FcγRIII extracellular domain, C-terminally His-tagged (mouse, UniProt P08508 31-215)
T2 construct: the whole entry is named; also called mFcγRIII; mFcgRIII
T2 chain: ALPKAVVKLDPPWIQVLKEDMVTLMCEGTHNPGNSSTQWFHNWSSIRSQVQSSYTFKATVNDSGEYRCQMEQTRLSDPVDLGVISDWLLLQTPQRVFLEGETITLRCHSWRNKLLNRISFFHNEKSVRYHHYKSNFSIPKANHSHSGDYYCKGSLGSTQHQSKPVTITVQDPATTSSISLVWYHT


Tests used:
[1] = target: T1, mouse FcγRII extracellular domain, …; test: SPR Biacore T200, KD ratio, template MB515
Description: (§1) The antibody H chain variable region used was the variable region H237 (SEQ ID NO: 1) of the H chain VH3-IgG1 of the anti-IL-6 receptor antibody Fv4-IgG1 described in WO2009/125825. The antibody L chain commonly used was the L chain MRAL-k0 (SEQ ID NO: 2) of the anti-IL-6 receptor antibody tocilizumab. H237-MB476/MRAL-k0 and H237-MB515/MRAL-k0 were used as templates to introduce new alterations. These variants were expressed and purified by the method of Reference Example 1 and evaluated for their binding to mFcγRII and mFcγRIII by the method of Reference Example 2 using Biacore T200.
(§2) Each altered antibody was analyzed for its interaction with each Fcγ receptor prepared above using Biacore T100 (GE Healthcare Japan Corp.), Biacore T200 (GE Healthcare Japan Corp.), Biacore A100, or Biacore 4000. The running buffer used was HBS-EP+ (GE Healthcare Japan Corp.). The assay temperature was set to 25° C. The sensor chips used were chips prepared by immobilizing Protein L (ACTIGEN or BioVision) onto Series S Sensor Chip CM5 (GE Healthcare Japan Corp.) or Series S Sensor Chip CM4 (GE Healthcare Japan Corp.) by the amine coupling method.
(§3) In order to calculate the KD value of each altered antibody for FcγR, kinetic analysis was conducted according to the following method: first, the antibody of interest was captured onto any of these chips and allowed to interact with mFcγR diluted with a running buffer. For the obtained sensorgram, the assay results were globally fit into the 1:1 Langmuir binding model using Biacore Evaluation Software to calculate an association rate constant ka (L/mol/s) and a dissociation rate constant kd (1/s). From these values, the dissociation constant KD (mol/L) was calculated.

[2] = target: T2, mouse FcγRIII extracellular domain, …; test: SPR Biacore T200, KD ratio, template MB515
Description: as §1, §2, §3

[3] = target: T1, mouse FcγRII extracellular domain, …; test: SPR Biacore T200, KD ratio
Description: as §1, §2, §3

[4] = target: T2, mouse FcγRIII extracellular domain, …; test: SPR Biacore T200, KD ratio
Description: as §1, §2, §3

[5] = target: T1, mouse FcγRII extracellular domain, …; test: SPR Biacore T200, KD ratio, template MB476
Description: as §1, §2, §3

[6] = target: T2, mouse FcγRIII extracellular domain, …; test: SPR Biacore T200, KD ratio, template MB476
Description: as §1, §2, §3

relative mFcγRII-binding activity (template = 1) [1] [fold]	relative mFcγRIII-binding activity (template = 1) [2] [fold]	relative mFcγRII-binding activity (mIgG1 = 1) [3] [fold]	relative mFcγRIII-binding activity (mIgG1 = 1) [4] [fold]	relative mFcγRII-binding activity (template = 1) [5] [fold]	relative mFcγRIII-binding activity (template = 1) [6] [fold]	relative mFcγRII-binding activity (H237-mIgG1/MRAL-k0 = 1) [3] [fold]	relative mFcγRII-binding activity (template H237-MB515/MRAL-k0 = 1) [3] [fold]	Binder
1	1	137	1.3	–	–	–	–	H237-MB515/MRAL-k0 (antibody, mouse IgG1, kappa, Template; copies: 2 + 2) heavy: QVQLQESGPGLVKPSETLSLTCAVSGHSISHDHAWSWVRQPPGEGLEWIGFISYSGITNYNPSLQGRVTISRDNSKNTLYLQMNSLRAEDTAVYYCARSLARTTAMDYWGEGTLVTVSSAKTTPPSVYPLAPGSAAQTNSMVTLGCLVKGYFPEPVTVTWNSGSLSSGVHTFPAVLQSDLYTLSSSVTVPSSTWPSETVTCNVAHPASSTKVDKKIVPRDCGCKPCICEPNEVEMVFIFPPKPKDVLTITLTPKVTCVVVDISKDDPEVQFSWFVDDVEVHTAQTQPREEQFNSTFRSVSELPIMHQDWLNGKEFKCRVNSAAFPAPIEKTISKTKGRPKAPQVYTIPPPKEQMAKDKVSLTCMITDFFPEDITVEWQWNGQPAENYKNTQPIMDTDGSYFVYSKLNVQKSNWEAGNTFTCSVLHEGLHNHHTEKSLSHSPGK light: not shown
–	–	510	8.9	1.95	3.36	–	–	H237-MB537/MRAL-k0 (antibody, mouse IgG1, kappa, also called M6537; copies: 2 + 2) heavy: QVQLQESGPGLVKPSETLSLTCAVSGHSISHDHAWSWVRQPPGEGLEWIGFISYSGITNYNPSLQGRVTISRDNSKNTLYLQMNSLRAEDTAVYYCARSLARTTAMDYWGEGTLVTVSSAKTTPPSVYPLAPGSAAQTNSMVTLGCLVKGYFPEPVTVTWNSGSLSSGVHTFPAVLQSDLYTLSSSVTVPSSTWPSETVTCNVAHPASSTKVDKKIVPRDCGCKPCICQPNEVEEVFIFPPKPKDVLTITLTPKVTCVVVDISKDDPEVQFSWFVDDVEVHTAQTQPREEQFNLTFRSVSELPIMHQDWLNGKEFKCRVDSDAFPAPIERTISKTKGRPKAPQVYTIPPPKEQMAKDKVSLTCMITDFFPEDITVEWQWNGQPAENYKNTQPIMDTDGSYFVYSKLNVQKSNWEAGNTFTCSVLHEGLHNHHTEKSLSHSPGK light: not shown
0.63	1.3	86.2	1.7	–	–	–	–	H237-MB538/MRAL-k0 (antibody, mouse IgG1, kappa, copies: 2 + 2) heavy: QVQLQESGPGLVKPSETLSLTCAVSGHSISHDHAWSWVRQPPGEGLEWIGFISYSGITNYNPSLQGRVTISRDNSKNTLYLQMNSLRAEDTAVYYCARSLARTTAMDYWGEGTLVTVSSAKTTPPSVYPLAPGSAAQTNSMVTLGCLVKGYFPEPVTVTWNSGSLSSGVHTFPAVLQSDLYTLSSSVTVPSSTWPSETVTCNVAHPASSTKVDKKIVPRDCGCKPCICEPNEVEMVFIFPPKPKDVLTITLTPKVTCVVVDISKDDPEVQFSWFVDDVEVHTAQTQPREEQFNLTFRSVSELPIMHQDWLNGKEFKCRVNSAAFPAPIEKTISKTKGRPKAPQVYTIPPPKEQMAKDKVSLTCMITDFFPEDITVEWQWNGQPAENYKNTQPIMDTDGSYFVYSKLNVQKSNWEAGNTFTCSVLHEGLHNHHTEKSLSHSPGK light: not shown
1.09	2.15	149	2.8	–	–	–	–	H237-MB540/MRAL-k0 (antibody, mouse IgG1, kappa, copies: 2 + 2) heavy: QVQLQESGPGLVKPSETLSLTCAVSGHSISHDHAWSWVRQPPGEGLEWIGFISYSGITNYNPSLQGRVTISRDNSKNTLYLQMNSLRAEDTAVYYCARSLARTTAMDYWGEGTLVTVSSAKTTPPSVYPLAPGSAAQTNSMVTLGCLVKGYFPEPVTVTWNSGSLSSGVHTFPAVLQSDLYTLSSSVTVPSSTWPSETVTCNVAHPASSTKVDKKIVPRDCGCKPCICEPNEVEMVFIFPPKPKDVLTITLTPKVTCVVVDISKDDPEVQFSWFVDDVEVHTAQTQPREEQFNLTFRSVSELPIMHQDWLNGKEFKCRVNSDAFPAPIEKTISKTKGRPKAPQVYTIPPPKEQMAKDKVSLTCMITDFFPEDITVEWQWNGQPAENYKNTQPIMDTDGSYFVYSKLNVQKSNWEAGNTFTCSVLHEGLHNHHTEKSLSHSPGK light: not shown
2.8	2.57	384	3.4	–	–	≥ 350	≥ 1.4	H237-MB542/MRAL-k0 (antibody, mouse IgG1, kappa, copies: 2 + 2) heavy: QVQLQESGPGLVKPSETLSLTCAVSGHSISHDHAWSWVRQPPGEGLEWIGFISYSGITNYNPSLQGRVTISRDNSKNTLYLQMNSLRAEDTAVYYCARSLARTTAMDYWGEGTLVTVSSAKTTPPSVYPLAPGSAAQTNSMVTLGCLVKGYFPEPVTVTWNSGSLSSGVHTFPAVLQSDLYTLSSSVTVPSSTWPSETVTCNVAHPASSTKVDKKIVPRDCGCKPCICEPNEVEMVFIFPPKPKDVLTITLTPKVTCVVVDISKDDPEVQFSWFVDDVEVHTAQTQPREEQFNSTFRSVSELPIMHQDWLNGKEFKCRVDSDAFPAPIEKTISKTKGRPKAPQVYTIPPPKEQMAKDKVSLTCMITDFFPEDITVEWQWNGQPAENYKNTQPIMDTDGSYFVYSKLNVQKSNWEAGNTFTCSVLHEGLHNHHTEKSLSHSPGK light: not shown
0.77	1.45	105	1.9	–	–	–	–	H237-MB539/MRAL-k0 (antibody, mouse IgG1, kappa, copies: 2 + 2) heavy: QVQLQESGPGLVKPSETLSLTCAVSGHSISHDHAWSWVRQPPGEGLEWIGFISYSGITNYNPSLQGRVTISRDNSKNTLYLQMNSLRAEDTAVYYCARSLARTTAMDYWGEGTLVTVSSAKTTPPSVYPLAPGSAAQTNSMVTLGCLVKGYFPEPVTVTWNSGSLSSGVHTFPAVLQSDLYTLSSSVTVPSSTWPSETVTCNVAHPASSTKVDKKIVPRDCGCKPCICEPNEVEMVFIFPPKPKDVLTITLTPKVTCVVVDISKDDPEVQFSWFVDDVEVHTAQTQPREEQFNLTFRSVSELPIMHQDWLNGKEFKCRVDSAAFPAPIEKTISKTKGRPKAPQVYTIPPPKEQMAKDKVSLTCMITDFFPEDITVEWQWNGQPAENYKNTQPIMDTDGSYFVYSKLNVQKSNWEAGNTFTCSVLHEGLHNHHTEKSLSHSPGK light: not shown
1.42	1.69	195	2.2	–	–	–	≥ 1.4	H237-MB543/MRAL-k0 (antibody, mouse IgG1, kappa, copies: 2 + 2) heavy: QVQLQESGPGLVKPSETLSLTCAVSGHSISHDHAWSWVRQPPGEGLEWIGFISYSGITNYNPSLQGRVTISRDNSKNTLYLQMNSLRAEDTAVYYCARSLARTTAMDYWGEGTLVTVSSAKTTPPSVYPLAPGSAAQTNSMVTLGCLVKGYFPEPVTVTWNSGSLSSGVHTFPAVLQSDLYTLSSSVTVPSSTWPSETVTCNVAHPASSTKVDKKIVPRDCGCKPCICEPNEVEMVFIFPPKPKDVLTITLTPKVTCVVVDISKDDPEVQFSWFVDDVEVHTAQTQPREEQFNSTFRSVSELPIMHQDWLNGKEFKCRVDSAAFPAPIERTISKTKGRPKAPQVYTIPPPKEQMAKDKVSLTCMITDFFPEDITVEWQWNGQPAENYKNTQPIMDTDGSYFVYSKLNVQKSNWEAGNTFTCSVLHEGLHNHHTEKSLSHSPGK light: not shown
0.75	2.48	103	3.3	–	–	–	–	H237-MB541/MRAL-k0 (antibody, mouse IgG1, kappa, copies: 2 + 2) heavy: QVQLQESGPGLVKPSETLSLTCAVSGHSISHDHAWSWVRQPPGEGLEWIGFISYSGITNYNPSLQGRVTISRDNSKNTLYLQMNSLRAEDTAVYYCARSLARTTAMDYWGEGTLVTVSSAKTTPPSVYPLAPGSAAQTNSMVTLGCLVKGYFPEPVTVTWNSGSLSSGVHTFPAVLQSDLYTLSSSVTVPSSTWPSETVTCNVAHPASSTKVDKKIVPRDCGCKPCICEPNEVEMVFIFPPKPKDVLTITLTPKVTCVVVDISKDDPEVQFSWFVDDVEVHTAQTQPREEQFNLTFRSVSELPIMHQDWLNGKEFKCRVNSAAFPAPIERTISKTKGRPKAPQVYTIPPPKEQMAKDKVSLTCMITDFFPEDITVEWQWNGQPAENYKNTQPIMDTDGSYFVYSKLNVQKSNWEAGNTFTCSVLHEGLHNHHTEKSLSHSPGK light: not shown
